According to the supplement of paper PMC10724198:
± gives the standard deviation of the averaged measurements.

Test system: Saccharomyces cerevisiae
Assay: protein stability index of tFT-peptide fusion (C-terminal peptide) (PSI (0-1 scale)); higher = more stable (slower turnover)
Settings: temperature: 30 C
Description: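 MPS profiling in S. cerevisiae of the yeast C-terminome library: the last 12 aa of each annotated ORF are fused to the C-terminus of a sfGFP-mCherry timer, after a GGGS linker. Cells are FACS-sorted into 8 mCherry/sfGFP bins and deep-sequenced. PSI runs from 0 (unstable) to 1 (stable); wild type and das1Δ backgrounds, two technical replicates each.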

[1] = genetic background: das1 deletion

Sequence | protein stability index [1] | protein stability index (genetic background: wild type)
EESDSPESTAFY [PMC1 C-terminal 12 aa] | 0.699 ± 0.01 | 0.6671 ± 0.0055
EETEKKLKNLKL [YRB30 C-terminal 12 aa] | 0.703 ± 0.029 | 0.684 ± 0.037
EEVLEETKEKVE [PRT1 C-terminal 12 aa] | 0.689 ± 0.034 | 0.685 ± 0.013
EEWSSKFGSNGS [YTA6 C-terminal 12 aa] | 0.7431 ± 0.0031 | 0.725 ± 0.014
EFLQIMKARISK [SEC24 C-terminal 12 aa] | 0.686 ± 0.011 | 0.716 ± 0.048
EGRGYQQIHKLS [YHR139C-A C-terminal 12 aa] | 0.721 ± 0.018 | 0.253 ± 0.0035
EGSAFKKQKHYR [NOP9 C-terminal 12 aa] | 0.703 ± 0.0097 | 0.701 ± 0.012
EIALRKSGAVGS [YMR008C-A C-terminal 12 aa] | 0.689 ± 0.008 | 0.6727 ± 0.0038
EIGGLLLQSFYN [YPL119C-A C-terminal 12 aa] | 0.687 ± 0.039 | 0.7378 ± 0.0018
EIGHMYQKIKKS [MNN11 C-terminal 12 aa] | 0.721 ± 0.0077 | 0.317 ± 0.014
EIKCCHNGRALK [SAT4 C-terminal 12 aa] | 0.668 ± 0.023 | 0.697 ± 0.06
EIKQRNLRMQRQ [MPO1 C-terminal 12 aa] | 0.683 ± 0.026 | 0.678 ± 0.01
EKAKKSLSKMFS [CPR6 C-terminal 12 aa] | 0.688 ± 0.018 | 0.6927 ± 0.0033
EKLKLLNSQQKD [PET191 C-terminal 12 aa] | 0.682 ± 0.014 | 0.722 ± 0.029
ELASSILKELKL [KIN1 C-terminal 12 aa] | 0.707 ± 0.022 | 0.703 ± 0.054
ELDDILGSDSDF [MPH1 C-terminal 12 aa] | 0.711 ± 0.02 | 0.6837 ± 0.0036
ELEELLEPILAN [GRX1 C-terminal 12 aa] | 0.406 ± 0.028 | 0.4708 ± 0.00077
ELFTIISRIIED [TSL1 C-terminal 12 aa] | 0.702 ± 0.016 | 0.711 ± 0.046
ELIEKLKEVKAI [CIR1 C-terminal 12 aa] | 0.686 ± 0.018 | 0.34 ± 0.013
ELKINNDGRLVN [SEC66 C-terminal 12 aa] | 0.7137 ± 0.0053 | 0.714 ± 0.074
ELKKRFDALRRK [IST1 C-terminal 12 aa] | 0.686 ± 0.015 | 0.647 ± 0.0071

Sequence | protein stability index [1] | protein stability index (genetic background: wild type)
ELLRIHNSHLRN [FOL3 C-terminal 12 aa] | 0.715 ± 0.031 | 0.709 ± 0.042
ELWYKSFGPHDE [APC1 C-terminal 12 aa] | 0.7 ± 0.027 | 0.7187 ± 0.0068
ENWIHVSCLSFM [LIN1 C-terminal 12 aa] | 0.6634 ± 0.0048 | 0.6503 ± 0.0039
EQITSSLQEASE [FSH1 C-terminal 12 aa] | 0.67 ± 0.016 | 0.656 ± 0.0082
EQNFHFQFPPTN [IOC2 C-terminal 12 aa] | 0.7147 ± 0.0049 | 0.729 ± 0.021
ERDTTTKPSKRR [KEL3 C-terminal 12 aa] | 0.7092 ± 0.0049 | 0.698 ± 0.013
ERNPTQRPQRRY [RPS10A C-terminal 12 aa] | 0.728 ± 0.036 | 0.679 ± 0.036
ERPIVASTSPIA [TPH3 C-terminal 12 aa] | 0.71247 ± 4.2e-05 | 0.681 ± 0.0089
ERWVRMGELMHY [YBR184W C-terminal 12 aa] | 0.686 ± 0.018 | 0.538 ± 0.058
ERYTSIESEIVV [APE4 C-terminal 12 aa] | 0.6735 ± 0.0063 | 0.673 ± 0.023
ESKDDDDDDDWE [DOS2 C-terminal 12 aa] | 0.709 ± 0.038 | 0.648 ± 0.0095
ESRLFISDGAVF [MON1 C-terminal 12 aa] | 0.696 ± 0.0082 | 0.713 ± 0.041
ESSSPSQLQHEA [PHO84 C-terminal 12 aa] | 0.6938 ± 0.006 | 0.682 ± 0.024
ESTGHVDFGQNR [OTU1 C-terminal 12 aa] | 0.7 ± 0.012 | 0.703 ± 0.012
ETAENIAKYIRN [NPA3 C-terminal 12 aa] | 0.682 ± 0.024 | 0.661 ± 0.035
ETMVRIRVDGNE [DAD2 C-terminal 12 aa] | 0.665 ± 0.027 | 0.676 ± 0.025
EVDDDGEIDGLF [ADE3 C-terminal 12 aa] | 0.7153 ± 0.0044 | 0.692 ± 0.021
EVPGWQEYYDKL [YOR133W; YDR385W C-terminal 12 aa] | 0.72 ± 0.018 | 0.71 ± 0.016
EVTSLYTNASNA [DPC29 C-terminal 12 aa] | 0.715 ± 0.011 | 0.703 ± 0.049
EYNLDTFIKTLR [MOT1 C-terminal 12 aa] | 0.7535 ± 0.0064 | 0.6883 ± 0.0023
FAKLAAIPCSNA [YMR265C C-terminal 12 aa] | 0.553 ± 0.0059 | 0.5659 ± 0.0046

Sequence | protein stability index [1] | protein stability index (genetic background: wild type)
FEHFHCVLDQIL [YDR203W C-terminal 12 aa] | 0.7056 ± 0.0043 | 0.6954 ± 0.0031
FFFATQRDLKRT [YDR431W C-terminal 12 aa] | 0.715 ± 0.05 | 0.733 ± 0.019
FFMSDMNLSKEG [ATG13 C-terminal 12 aa] | 0.752 ± 0.016 | 0.654 ± 0.048
FFPFITIIFFHS [YCR024C-B C-terminal 12 aa] | 0.324 ± 0.026 | 0.299 ± 0.01
FGIKKNDLKKSN [GSF2 C-terminal 12 aa] | 0.708 ± 0.014 | 0.705 ± 0.023
FGRKLKKIFGRK [SEG2 C-terminal 12 aa] | 0.675 ± 0.035 | 0.6421 ± 0.0063
FIEALAKSVNEL [UGA1 C-terminal 12 aa] | 0.7371 ± 0.0042 | 0.689 ± 0.054
FKELLGYTLVSA [VSB1 C-terminal 12 aa] | 0.356 ± 0.03 | 0.391 ± 0.0093
FKITTEHGTTQQ [CRT10 C-terminal 12 aa] | 0.675 ± 0.0095 | 0.685 ± 0.031
FKLKDEYLLIDD [SAS2 C-terminal 12 aa] | 0.69 ± 0.016 | 0.666 ± 0.031
FLIHTPKHPPPT [POG1 C-terminal 12 aa] | 0.698 ± 0.011 | 0.725 ± 0.021
FMWLLLALPVVF [FLO11 C-terminal 12 aa] | 0.362 ± 0.027 | 0.393 ± 0.019
FRALAELYNLVL [GAS5 C-terminal 12 aa] | 0.701 ± 0.02 | 0.681 ± 0.013
FRSTRSNTPNYT [HDA2 C-terminal 12 aa] | 0.728 ± 0.018 | 0.737 ± 0.046
FTAVLGTYLLTL [SDH3 C-terminal 12 aa] | 0.6494 ± 0.005 | 0.645 ± 0.0016
FVLKTLNMNVTN [OST1 C-terminal 12 aa] | 0.681 ± 0.0095 | 0.668 ± 0.0024
FVRKIYSSIKVD [EMP70 C-terminal 12 aa] | 0.665 ± 0.025 | 0.614 ± 0.04
FYNIHDERIREQ [YKL162C-A C-terminal 12 aa] | 0.746 ± 0.013 | 0.657 ± 0.078
GATDTSCYKERG [MRPL27 C-terminal 12 aa] | 0.695 ± 0.026 | 0.702 ± 0.085
GEEKKHLKMASP [MDE1 C-terminal 12 aa] | 0.6905 ± 0.0062 | 0.704 ± 0.035
GELFQIVSNQSS [STE6 C-terminal 12 aa] | 0.702 ± 0.017 | 0.679 ± 0.0082

Sequence | protein stability index [1] | protein stability index (genetic background: wild type)
GFKGFSNKRVKG [MSS18 C-terminal 12 aa] | 0.689 ± 0.015 | 0.6964 ± 0.0036
GFRLRFWKSLGF [CYT2 C-terminal 12 aa] | 0.706 ± 0.029 | 0.716 ± 0.023
GGFDDGFDGSDF [WWM1 C-terminal 12 aa] | 0.719 ± 0.012 | 0.728 ± 0.0098
GGKIFSLKLTLI [YPR108W-A C-terminal 12 aa] | 0.673 ± 0.011 | 0.384 ± 0.023
GGLSDIGKNTSN [HUG1 C-terminal 12 aa] | 0.693 ± 0.013 | 0.684 ± 0.016
GGNSSKKGKKKR [RQC2 C-terminal 12 aa] | 0.6835 ± 0.00078 | 0.724 ± 0.022
GGRNQYGGDDDY [DDR48 C-terminal 12 aa] | 0.698 ± 0.015 | 0.6858 ± 0.0067
GKKLKKIFGRKK [SEG1 C-terminal 12 aa] | 0.719 ± 0.006 | 0.6627 ± 0.0025
GKTDYLDTKLIF [EKI1 C-terminal 12 aa] | 0.739 ± 0.02 | 0.726 ± 0.0084
GKVAKYIFDNIC [BNA7 C-terminal 12 aa] | 0.696 ± 0.015 | 0.722 ± 0.024
GKVLFKPSSSIF [YBR064W C-terminal 12 aa] | 0.719 ± 0.011 | 0.695 ± 0.017
GKYFLKEEQDEI [YUR1 C-terminal 12 aa] | 0.692 ± 0.025 | 0.7058 ± 0.0067
GKYNIKVKLNFI [VAR1 C-terminal 12 aa] | 0.704 ± 0.027 | 0.69 ± 0.096
GLQFHFKAEHKD [PHO86 C-terminal 12 aa] | 0.701 ± 0.014 | 0.686 ± 0.058
GLSDEEDSSEED [RRT14 C-terminal 12 aa] | 0.679 ± 0.00072 | 0.698 ± 0.021
GLVATAVKQLPQ [VPS64 C-terminal 12 aa] | 0.674 ± 0.0032 | 0.662 ± 0.014
GNINDDDDGFFD [PLP2 C-terminal 12 aa] | 0.724 ± 0.021 | 0.698 ± 0.019
GNLMRSSNVLEK [SLO1 C-terminal 12 aa] | 0.685 ± 0.0076 | 0.7 ± 0.016
GNSDGSVEVTEK [RKI1 C-terminal 12 aa] | 0.6897 ± 0.0053 | 0.705 ± 0.03
